# Experimental data: patent US20090180995A1, “NOVEL ANTICOAGULANT POLYPEPTIDES AND COMPLEX” (National University of Singapore, priority 2005, published 2009)
# B1: hemextin AB complex (protein)
# chain 1: LKCKNKLVPFLSKTCPEGKNLCYKMTMLKMPKIPIKRGCTDACPKSSLLVKVVCCNKDKCN
# chain 2: LKCKNKVVPFLKCKNKVVPFLCYKMTLKKVPKIPIKRGCTDACPKSSLLVNVMCCKTDKCN
# Key:
# FVIIa (human) [1] = target: FVIIa (human) (UniProt P08709)
# FVIIa (human) [2] = target: FVIIa (human) (UniProt P08709); test: cell-based or functional assay
# FVIIa-sTF (human) [3] = target: FVIIa-sTF (human) (UniProt P08709); test: cell-based or functional assay
# FVIIa-sTF (human) [4] = target: FVIIa-sTF (human) (UniProt P08709); test: non-competitive inhibition kinetics of FVIIa-sTF amidolytic activity on S-2288
# Chain of FVIIa (human) (P08709 61-212 limits assumed, chain 1 of 2): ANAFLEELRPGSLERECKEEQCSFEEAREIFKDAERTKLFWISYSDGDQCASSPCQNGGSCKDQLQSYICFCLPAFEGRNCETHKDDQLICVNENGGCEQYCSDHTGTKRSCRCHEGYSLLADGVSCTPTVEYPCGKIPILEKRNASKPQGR
# Chain of FVIIa (human) (P08709 213-466 limits assumed, chain 2 of 2): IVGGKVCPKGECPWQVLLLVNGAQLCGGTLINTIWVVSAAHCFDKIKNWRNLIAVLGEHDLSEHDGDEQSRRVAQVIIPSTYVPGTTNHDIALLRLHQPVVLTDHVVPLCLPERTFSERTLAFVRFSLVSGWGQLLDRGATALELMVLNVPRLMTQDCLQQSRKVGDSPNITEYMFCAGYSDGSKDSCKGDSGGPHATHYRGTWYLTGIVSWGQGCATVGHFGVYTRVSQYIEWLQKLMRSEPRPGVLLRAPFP
# Chain of FVIIa-sTF (human) (P08709 61-212 limits assumed, chain 1 of 3): as the sequence (P08709 61-212 limits assumed, chain 1 of 2) above
# Chain of FVIIa-sTF (human) (P13726 33-251 limits assumed, chain 2 of 3, further chain): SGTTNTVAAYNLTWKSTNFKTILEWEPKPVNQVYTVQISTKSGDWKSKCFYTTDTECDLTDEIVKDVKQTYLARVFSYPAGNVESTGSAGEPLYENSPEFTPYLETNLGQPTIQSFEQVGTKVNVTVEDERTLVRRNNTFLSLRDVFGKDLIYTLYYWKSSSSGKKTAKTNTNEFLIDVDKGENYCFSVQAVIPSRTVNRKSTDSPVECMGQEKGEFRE
# Chain of FVIIa-sTF (human) (P08709 213-466 limits assumed, chain 3 of 3): as the sequence (P08709 213-466 limits assumed, chain 2 of 2) above
binder,measurement,setting,value
B1,Ka,FVIIa (human) [1],411000 M⁻¹
same,ΔG,FVIIa (human) [1],-7.54
same,ΔH,FVIIa (human) [1],-7.93
same,ΔS,FVIIa (human) [1],-1.25 cal/M
same,"IC50, inhibition of FVIIa amidolytic activity in the absence of sTF",FVIIa (human) [2],105 nM
same,inhibitory potency towards FVIIa relative to plasma kallikrein,FVIIa (human) [2],> 50 times
same,"IC50, inhibition of FVIIa amidolytic activity in the presence of sTF",FVIIa-sTF (human) [3],100 nM
same,Ki,FVIIa-sTF (human) [4],25 nM
